These results are taken from article PMC3575409, “Identification of a Novel Protein-Protein Interaction Motif Mediating Interaction of GPCR-Associated Sorting Proteins with G Protein-Coupled Receptors” (PLoS ONE, 2013).

Bounds are passed on as bounds.

Format in all cases: binding
The subject of experiment [1] is GST-fused TGFβ (type III transforming growth factor β receptor) C-tail. Description: GST-pull down, TGFβ C-tail. Conditions: non-GPCR control. From the text: (§1) cDNAs encoding the cytoplasmic C-tail of 14 GPCRs and 2 one-transmembrane receptors were cloned into the pGEX-2T prokaryotic expression vector downstream the GST sequence. The following pGEX constructs were engineered: pGEX-DOR encoding residues 314–372 of the δ-opioid receptor (referring to Swiss-Prot accession number U10504), pGEX-MOR encoding residues 334–400 of the µ-opioid receptor (L29301), pGEX-KOR encoding residues 326–380 of the κ–opioid receptor (U17298), pGEX-ORL1 encoding residues 315–370 of the opioid receptor-like 1 (X77130), pGEX-M1 encoding residues 414–460 of the muscarinic M1 acetylcholine receptor (X52068), pGEX-M2 encoding residues 436–466 of the muscarinic M2 acetylcholine receptor (M16404), pGEX- ADRB1 encoding residues 373–477 of the β1 adrenergic receptor (J03019), pGEX-ADRB2 encoding residues 322–413 of the β2 adrenergic receptor (P07550), pGEX-CALCR encoding residues 407–490 of the calcitonin receptor (L00587), pGEX-CNR2 encoding residues 295–360 of the cannabinoid type 2 receptor (P34972), pGEX-5HT7 encoding residues 380–445 of the 5-hydroxytryptamine 7 receptor (L21195), pGEX-H2 encoding residues 284–349 of the histamine 2 receptor (S57565), pGEX-TXA2 encoding residues 304–343 of the α isoform of the thromboxane A2 receptor (D38081), pGEX-FZ4 encoding residues 493–537 of the frizzled 4 receptor (AB032417), pGEX-TGFβ encoding residues 805–849 of the type III transforming growth factor b receptor (L07594), pGEX-IGF1 encoding residues 1268–1367 of the insulin growth factor I receptor (X04434). Free GST was produced by using the pGEX-4T3 expression vector without insert. The same plasmid was used to clone the cDNA encoding a central domain of GASP-1, corresponding to amino acids 380 to 1073, downstream the GST sequence. All these plasmids were transformed into the Escherichia coli BL21 strain and expression was induced using 1mM of isopropylthiogalactoside for 2 h at 37°C. Bacteria were then pelleted, resuspended in PBS supplemented with cOmplete protease inhibitors (Roche), lysed at 1.5 kbar using a basic Z cell disrupter (constant system) and finally the lysates were cleared by centrifugation (10,000g, 15 min, 4°C).
(§2) cDNAs encoding GASP-1 and GASP-2 were cloned into the pcDNA3 eukaryotic expression vectors. cDNAs encoding GASP-3, -6, -7, and -9 were subcloned into pcDNA3.1 vectors. All the clones were controlled by DNA sequencing. The in vitro production was performed by using the TNT Quick-coupled Transcription/Translation T7 kit (Promega) in presence of [^35S]-Methionine according to the instructions from the manufacturer.
(§3) GST-fusion proteins were immobilized on glutathione-coupled Sepharose beads (GE Healthcare) for 1 h at 4°C and incubated with [^35S]-labelled in vitro translated GASP proteins or their truncated or mutated forms in ice-cold binding buffer containing: 20 mM Tris-HCl pH 7.4, 150 mM NaCl, 1 mM EDTA, 1 mM DTT, 10% glycerol and 1% Triton X-100. The mixture was incubated for 1 h at 4°C with gentle rocking. The beads were washed five times with the same ice-cold buffer, resuspended in 30 µl SDS-PAGE sample buffer, incubated 10 min at 65°C, and pelleted for 60 s at 3000 g. The supernatants were then analyzed by SDS-PAGE, the gels were stained with Coomassie blue to visualize GST-fusion proteins, dried and analyzed using a Phosphor-imager (Personal Molecular Imager FX, Biorad) to visualize [^35S]-labelled GASPs. Quantification was performed with the Quantity One software (Biorad). GST-pull down quantification data were analyzed using GraphPad Prism 4.03 (GraphPad Software). Quantifications presented are means of at least three independent experiments.

For experiment [2], the system named is GST-fused IGF1 (insulin growth factor I receptor) C-tail. The experiment in a line: GST-pull down, IGF1 C-tail. To be noted: non-GPCR control.
Excerpt: as §1, §2, §3

The subject of another experiment is GST-fused GPCR C-tails. The experiment in a line: GST-pull down, GPCR C-tails. To be noted: for interaction with GPCR C-tails: twelve GPCR C-tails.
Excerpt: as §1, §2
as §3, with “experiments. […]” for “experiments.”

In a further experiment the test system is GST-fused DOR C-tail. The experiment in a line: GST-pull down, DOR C-tail. To be noted: compared with full-length GASP-1.
Excerpt: as §1, §2, §3

B1: GASP-7: member of the second GASP subfamily, without GASP motif (protein)
chain: MGRTREAGCVAAGVVIGAGACYCVYRLAWGRDENEKIWDEDEESTDTSEIGVETVKGAKTNAGAGSGAKLQGDSEVKPEVSLGLEDCPGVKEKAHSGSHSGGGLEAKAKALFNTLKEQASAKAGKGARVGTISGNRTLAPSLPCPGGRGGGCHPTRSGSRAGGRASGKSKGKARSKSTRAPATTWPVRRGKFNFPYKIDDILSAPDLQKVLNILERTNDPFIQEVALVTLGNNAAYSFNQNAIRELGGVPIIAKLIKTKDPIIREKTYNALNNLSVNAENQGKIKTYISQVCDDTMVCRLDSAVQMAGLRLLTNMTVTNHYQHLLSYSFPDFFALLFLGNHFTKIQIMKLIINFTENPAMTRELVSCKVPSELISLFNKEWDREILLNILTLFENINDNIKNEGLASSRKEFSRSSLFFLFKESGVCVKKIKALANHNDLVVKVKVLKVLTKL
modifications: [35S]-methionine labelled
With B1, the “interaction with TGFβ C-tail” value in experiment [1] was “No interaction was detected”. The “interaction with IGF1 C-tail” value in experiment [2] was “No interaction was detected”. For the same molecule, in the experiment on GST-fused GPCR C-tails, the “interaction with GPCR C-tails” value is “weak to medium interactions and weak”.

B2: GASP-2: member of the GASP family, two GASP motifs (protein)
chain: MTGAEIEPSAQAKPEKKAGEEVIAGPERENDVPLVVRPKVRTQATTGARPKTETKSVPAARPKTEAQAMSGARPKTEVQVMGGARPKTEAQGITGARPKTDARAVGGARSKTDAKAIPGARPKDEAQAWAQSEFGTEAVSQAEGVSQTNAVAWPLATAESGSVTKSKGLSMDRELVNVDAETFPGTQGQKGIQPWFGPGEETNMGSWCYSRPRAREEASNESGFWSADETSTASSFWTGEETSVRSWPREESNTRSRHRAKHQTNPRSRPRSKQEAYVDSWSGSEDEASNPFSFWVGENTNNLFRPRVREEANIRSKLRTNREDCFESESEDEFYKQSWVLPGEEANSRFRHRDKEDPNTALKLRAQKDVDSDRVKQEPRFEEEVIIGSWFWAEKEASLEGGASAICESEPGTEEGAIGGSAYWAEEKSSLGAVAREEAKPESEEEAIFGSWFWDRDEACFDLNPCPVYKVSDRFRDAAEELNASSRPQTWDEVTVEFKPGLFHGVGFRSTSPFGIPEEASEMLEAKPKNLELSPEGEEQESLLQPDQPSPEFTFQYDPSYRSVREIREHLRARESAESESWSCSCIQCELKIGSEEFEEFLLLMDKIRDPFIHEISKIAMGMRSASQFTRDFIRDSGVVSLIETLLNYPSSRVRTSFLENMIHMAPPYPNLNMIETFICQVCEETLAHSVDSLEQLTGIRMLRHLTMTIDYHTLIANYMSGFLSLLTTANARTKFHVLKMLLNLSENPAVAKKLFSAKALSIFVGLFNIEETNDNIQIVIKMFQNISNIIKSGKMSLIDDDFSLEPLISAFREFEELAKQLQAQIDNQNDPEVGQQS
modifications: [35S]-methionine labelled
In the case of B2, the “interaction with TGFβ C-tail” value in experiment [1] is recorded as “no interaction was detected”. For the same molecule, the “interaction with IGF1 C-tail” value in experiment [2] was “no interaction was detected”. Besides, in the experiment on GST-fused GPCR C-tails (percent of GASP input), the “GASP input retained by GPCR C-tails” value is > 10%. For the same molecule, the “interaction with GPCR C-tails” value in the experiment with GST-fused GPCR C-tails was “medium to strong interactions”.

B3: mutant D: derived from mutant 924–1395 by deletion of 95 AA from the C-terminus (protein, UniProt Q5JY77 924-1300, looked up, fragment)
chain: CCVSKPEDDEEMIVESWFWSRDKAIKETGTVATCESKPENEEGAIVGSWFEAEDEVDNRTDNGSNCGSRTLADEDEAIVGSWFWAGDEAHFESNPSPVFRAICRSTCSVEQEPDPSRRPQSWEEVTVQFKPGPWGRVGFPSISPFRFPKEAASLFCEMFGGKPRNMVLSPEGEDQESLLQPDQPSPEFPFQYDPSYRSVQEIREHLRAKESTEPESSSCNCIQCELKIGSEEFEELLLLMEKIRDPFIHEISKIAMGMRSASQFTRDFIRDSGVVSLIETLLNYPSSRVRTSFLENMIRMAPPYPNLNIIQTYICKVCEETLAYSVDSPEQLSGIRMIRHLTTTTDYHTLVANYMSGFLSLLATGNAKTRFHVLKML
B3: the “interaction of truncated GASP-1 with DOR C-tail” value with GST-fused DOR C-tail is recorded as “completely lost”.

B4: mutant C: derived from mutant 924–1395 by deletion of 45 AA from the C-terminus (protein, UniProt Q5JY77 924-1350, looked up, fragment)
chain: CCVSKPEDDEEMIVESWFWSRDKAIKETGTVATCESKPENEEGAIVGSWFEAEDEVDNRTDNGSNCGSRTLADEDEAIVGSWFWAGDEAHFESNPSPVFRAICRSTCSVEQEPDPSRRPQSWEEVTVQFKPGPWGRVGFPSISPFRFPKEAASLFCEMFGGKPRNMVLSPEGEDQESLLQPDQPSPEFPFQYDPSYRSVQEIREHLRAKESTEPESSSCNCIQCELKIGSEEFEELLLLMEKIRDPFIHEISKIAMGMRSASQFTRDFIRDSGVVSLIETLLNYPSSRVRTSFLENMIRMAPPYPNLNIIQTYICKVCEETLAYSVDSPEQLSGIRMIRHLTTTTDYHTLVANYMSGFLSLLATGNAKTRFHVLKMLLNLSENLFMTKELLSAEAVSEFIGLFNREETNDNIQIVLAIFENIGNNIK
As for B4, the “interaction of truncated GASP-1 with DOR C-tail” value with GST-fused DOR C-tail is on record as “strong interaction”.
